From patent US20250002586A1 (CDR LIFE, published 2025) come the findings set out here.

Experiment [1] addresses T1, MAGE-A4 peptide … presented by HLA-A*02:01 on cells (human). The experiment in a line: cell-based or functional assay.
Experiment [2] concerns the target T2, HLA-A*02:01 in complex with the MAGE-A4 peptide … (human).
T2 construct: Recombinant complex as immobilised (500 RU) for SPR; also called HLA-A2/MAGE-A4 complex; pMHC-MAGE-A4 antigen
The experiment in a line: SPR (Biacore T200), HLA-A*02:01/MAGE-A4 peptide complex on streptavidin chip, 1:1 Langmuir fit.
Procedure: Affinity characterization of HLA-A2/MAGE-A4×CD3 bispecific antibodies was performed by surface plasmon resonance (SPR). All experiments were conducted using a Biacore™ T200 Device (Cytiva). To determine the kinetic parameters of the binding of the bispecific antibodies to the HLA-A2/MAGE-A4 complex, a streptavidin chip (SAHC30M, XanTec) was coated according to the manufacturer's instructions with 500 RU HLA-A*02:01 in complex with the MAGE-A4 peptide. The resulting affinities presented herein correspond to the measurements performed with the respective monovalent antigen binding proteins. […] Uncoated channels were used for referencing. Data fitting was performed using a 1:1 Langmuir model.

Experiment [3] addresses CD3 heterodimer (Acro Biosystems) (UniProt P07766 23-126). The experiment in a line: SPR (Biacore T200), CD3 heterodimer on HC30M chip, 1:1 Langmuir fit.
Experiment [4] has as its target T1, MAGE-A4 peptide … presented by …. The experiment in a line: cell-based or functional assay. The source holds these as a separate data set.

Where two headings read alike, the source gives them in different places.

Chain of CD3 heterodimer (Acro Biosystems) (P07766 23-126, one chain of several): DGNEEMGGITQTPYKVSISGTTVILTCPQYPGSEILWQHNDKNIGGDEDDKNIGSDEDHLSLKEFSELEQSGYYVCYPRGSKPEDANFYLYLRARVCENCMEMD

B1: CDR-3 (bispecific antibody)
heavy: EVQLVESGGGSVQPGGSLRLSCAASGFTFSTYAMNWVRQAPGKGLEWVGRIRSKANNYATYYADSVKGRFTISRDDSKNTLYLQMNSLRAEDTATYYCVRHGNFGDSYVSWFAYWGQGTTVTVSSASTKGPSVFPLAPSSKSTSGGTAALGCLVKDYFPEPVTVSWNSGALTSGVHTFPAVLQSSGLYSLSSVVTVPSSSLGTQTYICNVNHKPSNTKVDKRVEPKSCGGGGSEVQLVESGGGLAQAGGSLRVSCVASGRPFTKYAWGWFRQAPGKAREFVATITWDGGKTDYADSVKGRFTISKDSAENSIYLQMNSLKPEDTAVYYCAADRNYCVGHRCYVRPDDYDYWGQGTQVTVSS
light: AVVTQEPSLTVSPGGTVTLTCGSSTGAVTTSNYANWVQQKPGKSPRGLIGGTNKRAPGVPARFSGSLLGGKAALTISGAQPEDEADYYCALWYSNHWVFGGGTKLTVLGTVAAPSVFIFPPSDEQLKSGTASVVCLLNNFYPREAKVQWKVDNALQSGNSQESVTEQDSKDSTYSLSSTLTLSKADYEKHKVYACEVTHQGLSSPVTKSFNRGEC
notes: no Fc; also called Format #3; monovalent Fab-VHH
Take B1: in experiment [1], the “U20S cell killing, IC50” value stood at 0.24 nM. Further, in experiment [2], binding was characterised by a dissociation constant (Kd) of 1.9 nM.

B2: CDR-9 (bispecific antibody)
heavy: EVQLVESGGGLVQPGGSLRLSCAASGFTFSTYAMNWVRQAPGKGLEWVGRIRSKANNYATYYADSVKGRFTISRDDSKNTLYLQMNSLRAEDTAVYYCVRHGNFGDSYVSWFAYWGQGTLVTVSSASTKGPSVFPLAPSSKSTSGGTAALGCLVKDYFPEPVTVSWNSGALTSGVHTFPAVLQSSGLYSLSSVVTVPSSSLGTQTYICNVNHKPSNTKVDKRVEPKSCGGGGSEVQLVESGGGLVQPGGSLRLSCVASGRPFTKYAWGWFRQAPGKAREFVATITWDGGKTDYADSVKGRFTISKDSAKNSIYLQMNSLRAEDTAVYYCAADRNYCVGHRCYVRPDDYDYWGQGTLVTVSS
light: QAVVTQEPSLTVSPGGTVTLTCGSSTGAVTTSNYANWVQQKPGKSPRGLIGGTNKRAPGVPARFSGSLLGGKAALTISGAQPEDEADYYCALWYSNHWVFGGGTKLTVLGTVAAPSVFIFPPSDEQLKSGTASVVCLLNNFYPREAKVQWKVDNALQSGNSQESVTEQDSKDSTYSLSSTLTLSKADYEKHKVYACEVTHQGLSSPVTKSFNRGECGGGGSEVQLVESGGGLVQPGGSLRLSCVASGRPFTKYAWGWFRQAPGKAREFVATITWDGGKTDYADSVKGRFTISKDSAKNSIYLQMNSLRAEDTAVYYCAADRNYCVGHRCYVRPDDYDYWGQGTLVTVS
notes: no Fc
For B2, in experiment [3], the affinity, expressed as Kd, was 54 nM.

B3: CDR-4 (bispecific antibody)
heavy: EVQLVESGGGLAQAGGSLRVSCVASGRPFTKYAWGWFRQAPGKAREFVATITWDGGKTDYADSVKGRFTISKDSAENSIYLQMNSLKPEDTAVYYCAADRNYCVGHRCYVRPDDYDYWGQGTQVTVSSGGGGSEVQLVESGGGSVQPGGSLRLSCAASGFTFSTYAMNWVRQAPGKGLEWVGRIRSKANNYATYYADSVKGRFTISRDDSKNTLYLQMNSLRAEDTATYYCVRHGNFGDSYVSWFAYWGQGTTVTVSSASTKGPSVFPLAPSSKSTSGGTAALGCLVKDYFPEPVTVSWNSGALTSGVHTFPAVLQSSGLYSLSSVVTVPSSSLGTQTYICNVNHKPSNTKVDKRVEPKSC
light: AVVTQEPSLTVSPGGTVTLTCGSSTGAVTTSNYANWVQQKPGKSPRGLIGGTNKRAPGVPARFSGSLLGGKAALTISGAQPEDEADYYCALWYSNHWVFGGGTKLTVLGTVAAPSVFIFPPSDEQLKSGTASVVCLLNNFYPREAKVQWKVDNALQSGNSQESVTEQDSKDSTYSLSSTLTLSKADYEKHKVYACEVTHQGLSSPVTKSFNRGEC
notes: no Fc; also called Format #4; monovalent Fab-VHH HLA-A2/MAGE-A4 x CD3 bispecific
B3: in experiment [1], the “U20S cell killing, IC50” value came to 0.5 nM. The Kd – broadly, the concentration at which binding is half-saturated – in experiment [2] was found to be 1.3 nM.

B4: CDR-1 (bispecific antibody)
heavy: EVQLVESGGGSVQPGGSLRLSCAASGFTFSTYAMNWVRQAPGKGLEWVGRIRSKANNYATYYADSVKGRFTISRDDSKNTLYLQMNSLRAEDTATYYCVRHGNFGDSYVSWFAYWGQGTTVTVSSASTKGPSVFPLAPSSKSTSGGTAALGCLVKDYFPEPVTVSWNSGALTSGVHTFPAVLQSSGLYSLSSVVTVPSSSLGTQTYICNVNHKPSNTKVDKRVEPKSC
light: EVQLVESGGGLAQAGGSLRVSCVASGRPFTKYAWGWFRQAPGKAREFVATITWDGGKTDYADSVKGRFTISKDSAENSIYLQMNSLKPEDTAVYYCAADRNYCVGHRCYVRPDDYDYWGQGTQVTVSSGGGGSAVVTQEPSLTVSPGGTVTLTCGSSTGAVTTSNYANWVQQKPGKSPRGLIGGTNKRAPGVPARFSGSLLGGKAALTISGAQPEDEADYYCALWYSNHWVFGGGTKLTVLGTVAAPSVFIFPPSDEQLKSGTASVVCLLNNFYPREAKVQWKVDNALQSGNSQESVTEQDSKDSTYSLSSTLTLSKADYEKHKVYACEVTHQGLSSPVTKSFNRGEC
notes: no Fc; also called Format #1; monovalent Fab-VHH HLA-A2/MAGE-A4 x CD3 bispecific
For the molecule B4, in experiment [1], the “U20S cell killing, IC50” value is 0.1 nM. Besides, the affinity in experiment [2], expressed as Kd, was 1.5 nM.

B5: CDR-2 (bispecific antibody)
heavy: EVQLVESGGGSVQPGGSLRLSCAASGFTFSTYAMNWVRQAPGKGLEWVGRIRSKANNYATYYADSVKGRFTISRDDSKNTLYLQMNSLRAEDTATYYCVRHGNFGDSYVSWFAYWGQGTTVTVSSASTKGPSVFPLAPSSKSTSGGTAALGCLVKDYFPEPVTVSWNSGALTSGVHTFPAVLQSSGLYSLSSVVTVPSSSLGTQTYICNVNHKPSNTKVDKRVEPKSC
light: AVVTQEPSLTVSPGGTVTLTCGSSTGAVTTSNYANWVQQKPGKSPRGLIGGTNKRAPGVPARFSGSLLGGKAALTISGAQPEDEADYYCALWYSNHWVFGGGTKLTVLGTVAAPSVFIFPPSDEQLKSGTASVVCLLNNFYPREAKVQWKVDNALQSGNSQESVTEQDSKDSTYSLSSTLTLSKADYEKHKVYACEVTHQGLSSPVTKSFNRGECGGGGSEVQLVESGGGLAQAGGSLRVSCVASGRPFTKYAWGWFRQAPGKAREFVATITWDGGKTDYADSVKGRFTISKDSAENSIYLQMNSLKPEDTAVYYCAADRNYCVGHRCYVRPDDYDYWGQGTQVTVSS
notes: no Fc; also called Format #2; monovalent Fab-VHH HLA-A2/MAGE-A4 x CD3 bispecific
For the molecule B5, the “U20S cell killing, IC50” value in experiment [1] came to 0.18 nM. The same molecule had a Kd in experiment [2] of 2.6 nM.

B6: CDR-5 (bispecific antibody)
heavy: EVQLVESGGGSVQPGGSLRLSCAASGFTFSTYAMNWVRQAPGKGLEWVGRIRSKANNYATYYADSVKGRFTISRDDSKNTLYLQMNSLRAEDTATYYCVRHGNFGDSYVSWFAYWGQGTTVTVSSASTKGPSVFPLAPSSKSTSGGTAALGCLVKDYFPEPVTVSWNSGALTSGVHTFPAVLQSSGLYSLSSVVTVPSSSLGTQTYICNVNHKPSNTKVDKRVEPKSCGGGGSEVQLVESGGGLAQAGGSLRVSCVASGRPFTKYAWGWFRQAPGKAREFVATITWDGGKTDYADSVKGRFTISKDSAENSIYLQMNSLKPEDTAVYYCAADRNYCVGHRCYVRPDDYDYWGQGTQVTVSS
light: EVQLVESGGGLAQAGGSLRVSCVASGRPFTKYAWGWFRQAPGKAREFVATITWDGGKTDYADSVKGRFTISKDSAENSIYLQMNSLKPEDTAVYYCAADRNYCVGHRCYVRPDDYDYWGQGTQVTVSSGGGGSAVVTQEPSLTVSPGGTVTLTCGSSTGAVTTSNYANWVQQKPGKSPRGLIGGTNKRAPGVPARFSGSLLGGKAALTISGAQPEDEADYYCALWYSNHWVFGGGTKLTVLGTVAAPSVFIFPPSDEQLKSGTASVVCLLNNFYPREAKVQWKVDNALQSGNSQESVTEQDSKDSTYSLSSTLTLSKADYEKHKVYACEVTHQGLSSPVTKSFNRGEC
Turning to B6, the “U20S cell killing, IC50” value in experiment [4] was determined as 0.01 nM.

B7: CDR-10 (bispecific antibody)
heavy: EVQLVESGGGLVQPGGSLRLSCAASGFTFSTYAMNWVRQAPGKGLEWVGRIRSKYNNYATYYADSVKGRFTISRDDSKNTLYLQMNSLRAEDTAVYYCVRHGNFGDSYVSWFAYWGQGTLVTVSSASTKGPSVFPLAPSSKSTSGGTAALGCLVKDYFPEPVTVSWNSGALTSGVHTFPAVLQSSGLYSLSSVVTVPSSSLGTQTYICNVNHKPSNTKVDKRVEPKSCGGGGSEVQLVESGGGLVQPGGSLRLSCVASGRPFTKYAWGWFRQAPGKAREFVATITWDGGKTDYADSVKGRFTISKDSAKNSIYLQMNSLRAEDTAVYYCAADRNYCVGHRCYVRPDDYDYWGQGTLVTVSS
light: QAVVTQEPSLTVSPGGTVTLTCGSSTGAVTTSNYANWVQQKPGKSPRGLIGGTNKRAPGVPARFSGSLLGGKAALTISGAQPEDEADYYCALWYSNHWVFGGGTKLTVLGTVAAPSVFIFPPSDEQLKSGTASVVCLLNNFYPREAKVQWKVDNALQSGNSQESVTEQDSKDSTYSLSSTLTLSKADYEKHKVYACEVTHQGLSSPVTKSFNRGECGGGGSEVQLVESGGGLVQPGGSLRLSCVASGRPFTKYAWGWFRQAPGKAREFVATITWDGGKTDYADSVKGRFTISKDSAKNSIYLQMNSLRAEDTAVYYCAADRNYCVGHRCYVRPDDYDYWGQGTLVTVSS
notes: no Fc
The molecule B7 came in with a Kd in experiment [3] of 11 nM.

B8: CDR-11 (bispecific antibody)
heavy: EVQLVESGGGLVQPGGSLRLSCAASGFTFSTYAMNWVRQAPGKGLEWVGRIRSKYNNYATYYADSVKGRFTISRDDSKNTLYLQMNSLRAEDTAVYYCVRHGNFGNSYVSWFAYWGQGTLVTVSSASTKGPSVFPLAPSSKSTSGGTAALGCLVKDYFPEPVTVSWNSGALTSGVHTFPAVLQSSGLYSLSSVVTVPSSSLGTQTYICNVNHKPSNTKVDKRVEPKSCGGGGSEVQLVESGGGLVQPGGSLRLSCVASGRPFTKYAWGWFRQAPGKAREFVATITWDGGKTDYADSVKGRFTISKDSAKNSIYLQMNSLRAEDTAVYYCAADRNYCVGHRCYVRPDDYDYWGQGTLVTVSS
light: QAVVTQEPSLTVSPGGTVTLTCRSSTGAVTTSNYANWVQQKPGQAPRGLIGGTNKRAPGVPARFSGSLLGGKAALTISGAQPEDEADYYCALWYSNHWVFGGGTKLTVLGTVAAPSVFIFPPSDEQLKSGTASVVCLLNNFYPREAKVQWKVDNALQSGNSQESVTEQDSKDSTYSLSSTLTLSKADYEKHKVYACEVTHQGLSSPVTKSFNRGECGGGGSEVQLVESGGGLVQPGGSLRLSCVASGRPFTKYAWGWFRQAPGKAREFVATITWDGGKTDYADSVKGRFTISKDSAKNSIYLQMNSLRAEDTAVYYCAADRNYCVGHRCYVRPDDYDYWGQGTLVTVSS
notes: no Fc
With B8, binding in experiment [3] was characterised by a dissociation constant (Kd) of 1.2 nM. This Kd lies about 9.2-fold lower than the previous one.
